Source: paper PMC2441792

What was measured:
[1] = biological target: protein δ (ParA-Ib type Walker-box ATPase) of plasmid pSM19035, wild type (Streptococcus pyogenes (plasmid pSM19035)); test: SEC + cross-linking
[2] = biological target: δ2K36A (Walker A mutant of protein δ) (Streptococcus pyogenes (plasmid pSM19035)); test: SEC + cross-linking

Row | Substance | stoichiometry N [1] | stoichiometry N [2]
1 | protein δ (ParA-Ib type Walker-box ATPase) of plasmid pSM19035, wild type (enzyme) | 2 | 
2 | δ2K36A (Walker A mutant of protein δ) (enzyme) |  | 2
